According to the Human Domainome abundance scans (Beltran et al. 2025):

B1: Zinc finger homeobox protein 3, residues 2244 to 2299; numbered along this chain, Q15911 (parent)
chain: SSRTRFTDYQLRVLQDFFDANAYPKDDEFEQLSNLLNLPTRVIVVWFQNARQKARK

Variants of: B1
Test: abundance fitness (aPCA) (normalised: wild type 0, dead -1); higher = more abundant; growth selection in yeast, the domain comes from the species named
Details: Homo sapiens

Abundance fitness: each site, then its substitutions
Y23: W 0.019 | Q -0.011 | N 0.013 | V -0.099 | E 0.139 | R -0.019 | L -0.161
V45: L -0.12 | D 0.155 | T -0.028 | Q 0.046 | G 0.077 | M -0.142 | F -0.171
F18: A -0.279 | I -0.249 | V -0.435 | L -0.19 | Q -0.268 | E -0.579 | M -0.298 | S -0.349
W46: A -0.86 | D -1.14 | T -0.611 | Q -1.17 | H -0.617
R41: A 0.022 | H 0.117 | P -0.046 | Q 0.018 | L -0.075 | K 0.074
Q52: H -0.092 | R -0.135 | V 0.128 | Y -0.14 | P -0.263
V44: I -0.223 | F -0.174 | H -0.524 | E -0.059 | Y -0.571 | M -0.031 | L -0.005 | A -0.134 | R -0.093
N34: E 0.118 | K 0.137 | L -0.17 | V 0.001 | A 0.067 | P -0.137 | T -0.145 | R -0.113
F6: H -0.672 | N -0.52 | E -0.657 | L -0.321 | T -0.433 | Y -0.06
S33: G -0.083 | A -0.109 | H -0.085 | V -0.452
S1: L -0.179 | R -0.097 | C 0.079 | D 0.137 | E 0.181 | W -0.939
F29: K -0.412 | N -0.622 | A -0.362 | D -0.955 | W -0.27 | L -0.035
L38: F -0.522 | M -0.026 | C -0.451 | D -1.07 | V -0.226
R12: S -0.149 | W -0.504 | V -0.466 | L -0.221 | M -0.378 | N 0.035 | C -0.531 | E -0.422 | I -0.312
R55: Q 0.049 | G -0.128 | N -0.218 | T -0.043 | A -0.172 | D -0.104
A22: T 0.01 | E 0.082 | V -0.14 | I -0.07 | H -0.125 | Q -0.127 | M 0.106 | L -0.129 | N -0.024
T7: P -0.84 | A -0.289
F17: S -0.025 | W -0.214 | Y 0.03 | E -0.076 | R 0.084
L14: H -1.24 | I -0.108 | Y -1.05 | G -0.931 | P -0.832 | M -0.019 | Q -0.549 | C -0.508
Q48: T -0.168 | H -0.407 | I -0.085 | C -0.221 | W -0.554 | F -0.245
T40: W -0.136 | A -0.119
A20: W -0.36 | P -0.543 | G -0.13 | Q -0.111 | L -0.188 | F -0.618
K25: D -0.466 | L -0.136 | T -0.161 | G -0.14 | R 0.013 | I -0.226 | Q -0.26 | S -0.133 | W -0.512 | C -0.184
N49: E 0.141 | T -0.119 | R -0.207 | V -0.362 | D 0.066 | Q -0.207
L35: C -0.176 | Y -0.129 | G -0.06
Q15: S -0.22 | E 0.015 | K -0.243 | P -0.889 | G -0.01 | Y -0.559 | T -0.113 | N -0.077
R5: G 0.19 | N 0.305 | C 0.323 | A 0.213 | E 0.321
